Test results from patent US11549134B2, “Modified amadoriase and method for producing the same, agent for improving surfactant resistance of amadoriase and composition for measuring HbA1c using the same” (Kikkoman Corporation, priority 2013, dated 2023).

Columns and labels:
Type in all cases: biochemical
[1] = Surfactant resistance (residual activity) of CcFX variants, 0.01% CTAC; settings: 30°C, 5 minutes, 20 mM potassium phosphate buffer (pH 7.0), crude enzyme, Table 1-2
Protocol: (§1) An amadoriase crude enzyme solution or an amadoriase purified sample is diluted with a 30 mM MES/21 mM Tris buffer solution (pH6.5) so as to have a concentration of about 1.0 U/ml. To this, CTAC (for example, manufactured by Tokyo Kasei Kogyo Co., Ltd.) is added so as to obtain a final concentration 0.01% (w/v) or 0.04%. The resultant mixture is heated at 30° C. for 5 minutes. After heating, the mixture is diluted double with a 10 mM phosphate buffer (pH7.0) containing 0.15% BSA to prepare a sample. The enzyme activities of the sample before and after a surfactant treatment are measured by the method described in Section B above. […] In this manner, surfactant resistance is evaluated.
Using a recombinant plasmid containing CcFX gene (SEQ ID NO: 55) as a starting plasmid, various variants were produced as in the procedures described in (1) and (2) above in Escherichia coli strain JM109 (pKK223-3-CcFX) having the plasmid. […] Subsequently, the surfactant resistance of the modified amadoriases was evaluated according to the measurement method for surfactant resistance described in (4) although under surfactant treatment conditions in which the amadoriases were each diluted in a 20 mM potassium phosphate buffer solution (pH 7.0) and mixed with 0.01% CTAC. […]

[2] = Surfactant resistance (residual activity), 0.04% SDS; settings: 30 mM MES/21 mM Tris buffer (pH 6.5)
Protocol: as §1
The stability of CFP-D was evaluated using sodium dodecyl sulfate (hereinafter indicated with “SDS”) in place of the surfactant CTAC used in Example 2. The surfactant resistance of the modified amadoriases was evaluated in accordance with a measurement method for surfactant resistance according to Example 1 although under surfactant treatment conditions in which the amadoriases were each diluted in a 30 mM MES/21 mM Tris buffer solution (pH 6.5) and mixed with 0.04% SDS. In this respect, it was confirmed that when the warmed sample was again measured for activity 30 minutes after 2-fold dilution in a BSA solution, there was no change in the activity value.

[3] = Surfactant resistance (residual activity), 0.04% TTAC; settings: 20 mM potassium phosphate buffer (pH 7.0)
Protocol: as §1
Tetradecyltrimethylammonium chloride (hereinafter indicated with “TTAC”) was used in place of the surfactant CTAC used in Example 2 to evaluate the stability of CFP-D. The surfactant resistance of various modified amadoriases was evaluated in accordance with a measurement method for surfactant resistance according to Example 1, although under surfactant treatment conditions in which the amadoriases were each diluted in a 20 mM potassium phosphate buffer solution (pH 7.0) and mixed with 0.04% TTAC. In this respect, it was confirmed that when the warmed sample was again measured for activity 30 minutes after 2-fold dilution in a BSA solution, there was no change in the activity value.

[4] = Surfactant resistance (residual activity) of CFP-D multiple variants, 0.04% CTAC; settings: 30°C, 5 minutes, crude enzyme
Protocol: An amadoriase crude enzyme solution or an amadoriase purified sample is diluted with a 30 mM MES/21 mM Tris buffer solution (pH6.5) so as to have a concentration of about 1.0 U/ml. To this, CTAC (for example, manufactured by Tokyo Kasei Kogyo Co., Ltd.) is added so as to obtain a final concentration 0.01% (w/v) or 0.04%. The resultant mixture is heated at 30° C. for 5 minutes. After heating, the mixture is diluted double with a 10 mM phosphate buffer (pH7.0) containing 0.15% BSA to prepare a sample. The enzyme activities of the sample before and after a surfactant treatment are measured by the method described in Section B above. The ratio of activity of the sample after the surfactant treatment relative to the activity of the sample before the surfactant treatment (regarded as 100), i.e., the residual activity (%), is obtained. In this manner, surfactant resistance is evaluated. […]

Row | Molecule | Residual Activity(%) [1] [%] | Residual Activity(%) [2] [%] | Residual Activity(%) [3] [%] | Residual Activity(%) [4] [%]
1 | CcFX: ketoamine oxidase derived from Curvularia clavata, SEQ ID NO: 37 (protein, listed as Curvularia clavata) MAPSRANTSVIVVGGGGTIGSSTALHLVRSGYTPSNITVLDTYPIPSAQSAGNDLNKIMGIRLRNKVDLQLSLEARQMWREDDLFKEYFHNTGRLDCAHGEEGLADLRQAYQALLDANAGLEETTEWLDSEDEILKKMPLLDREQIKGWKAVYSQDGGWLAAAKAINAIGEYLRAQGVKFGFGGAGSFKQPLLAEGVCIGVETVDGTRYYADKVVLAAGAWSPVLVDLEDQCVSKAWVYAHIQLTPEEAAEYKNVPVVYNGDVGFFFEPDEHGVIKVCDEFPGFTRFKQHQPYGAKAPKRISVPRSAAKHPTDTYPDASEKSIRKAIATFLPKFTEKELFNRHLCWCTDTADAALLMCEHPEWKNFVLATGDSGHTFKLLPNIGKHVVELLEGTLAEDLAHAWRWRPGTGDALKSRRAAPAKDLADMPGWKHDDVVKSKL | 27.4 | – | – | –
2 | CFP-D: amadoriase derived from the genus Coniochaeta with E98A, F43Y, G184D, deletion of 3 carboxy-terminal amino acid residues; SEQ ID NO: 3 (protein, listed as Coniochaeta sp., 3 C-terminal residues deleted) MTSNRADTRVIVVGGGGTIGSSTALHLVRSGYAPANITVLDTYEIPSAQSAGHDLNKIMGIRLRNKVDLQMSLEARQMWKEDELFQPFFHNTGRMDCAHTPEGIEDLKKQYQALHDAGAGLEKTHAWLDNEDEILSKMPLLQRDQIQGWKAIWSQDGGWLAAAKAINAIGQFLKERGVKFGFGDAGSFKQPLFDDEGTTCIGVETADGTKYYADKVVLAAGAWSPTLVDLEDQCCSKAWVYAHIQLTPEEAAEYKGVPVVYNGEFGFFFEPDEFGVIKVCDEFPGFSRFKEHQPYGAPSPKRISVPRSHAKHPTDTYPDASEVSIKKAIATFLPRFQDKELFNRALCWCTDTADAALLMCEHPKWKNFILATGDSGHSFKILPNVGKYVVELIEGRLPEEMAYQWRWRPGGDALKSRRAAPPKDLADMPGWKHD | – | 11.3 | 29.2 | 12.7
